The target of assay [1] is β-spectrin consisting of residues 1898–2083 (Spβ) (UniProt P11277). In words: ITC. A general note: In ITC the heat of successive injections is recorded.
In another assay the target is spin labeled SpαΔ 49R1 (UniProt P02549). The experiment in a line: spin label EPR titration.
Assay [2] addresses β-spectrin (Homo sapiens) (UniProt P11277). In words: ITC. Particulars: cited from earlier work.
Assay [3] has the same target. In words: ITC. Particulars: cited from earlier work. The source holds these as a separate data set.
Assay [4] has the same target. The experiment in a line: ITC. Particulars: cited from earlier work. The source holds these as a separate data set.
Assay [5] shares this target. In words: ITC. Particulars: cited from earlier work. The source holds these as a separate data set.

A value given as a limit tells only on which side of the number the result lay.

Take “spin labeled SpαΔ 46R1 (from UniProt P02549 1-368) (domain or fragment)”: the Kd in assay [1] stood at 5.9 µM. In turn, “spin labeled SpαΔ 48R1 (from UniProt P02549 1-368) (domain or fragment)” yielded an equilibrium dissociation constant (Kd) in assay [1] of 3.1 µM. The same measure, in the same setting: for “cysteine-less fragment of the first 368 residues of α-spectrin (from UniProt P02549 1-368) (domain or fragment)” the value was 0.9 µM.

The substance “spin labeled SpαΔ 49R1 (from UniProt P02549 1-368) (domain or fragment)” came in with a Kd in assay [1] above 30 µM.

In the case of “spin labeled SpαΔ 53R1 (from UniProt P02549 1-368) (domain or fragment)”, in assay [1], the Kd came to 3.3 µM. As to “β-spectrin consisting of residues 1898–2083 (Spβ) (from UniProt P11277 1898-2083) (domain or fragment)”, the Kd with spin labeled SpαΔ 49R1 was found to be 98 µM. For “spin labeled SpαΔ 20R1 (from UniProt P02549 1-368) (domain or fragment)”, the equilibrium dissociation constant (Kd) in assay [1] is 1.5 µM.

Take α-spectrin (from UniProt P02549): the Kd in assay [2] was 0.4 µM; in assay [3], 14 µM; in assay [4], above 200 µM; in assay [5], 0.5 µM. As to “spin labeled SpαΔ 45R1 (from UniProt P02549 1-368) (domain or fragment)”, in assay [1], the dissociation constant Kd is 2.9 µM.

What is called Kd is the concentration at which binding is half-saturated.

(Values after paper PMC2659877.)
